Positions count from the first letter of the chain named. One block for each binder: values may come before it.
Tests used:
[1] = biological target: T1, mouse FAP (fibroblast activation protein alpha) overexpressed in B16F10 cells (B16F10-mFAP) (mouse, UniProt P97321 1-761); test: flow cytometry on B16F10-mFAP cells, 1 µg protein per 1x10^5 cells, anti-mouse IgG2a detection
T1 construct: whole, on cells; also called mouse FAP-expressing cell line
T1 sequence (looked up): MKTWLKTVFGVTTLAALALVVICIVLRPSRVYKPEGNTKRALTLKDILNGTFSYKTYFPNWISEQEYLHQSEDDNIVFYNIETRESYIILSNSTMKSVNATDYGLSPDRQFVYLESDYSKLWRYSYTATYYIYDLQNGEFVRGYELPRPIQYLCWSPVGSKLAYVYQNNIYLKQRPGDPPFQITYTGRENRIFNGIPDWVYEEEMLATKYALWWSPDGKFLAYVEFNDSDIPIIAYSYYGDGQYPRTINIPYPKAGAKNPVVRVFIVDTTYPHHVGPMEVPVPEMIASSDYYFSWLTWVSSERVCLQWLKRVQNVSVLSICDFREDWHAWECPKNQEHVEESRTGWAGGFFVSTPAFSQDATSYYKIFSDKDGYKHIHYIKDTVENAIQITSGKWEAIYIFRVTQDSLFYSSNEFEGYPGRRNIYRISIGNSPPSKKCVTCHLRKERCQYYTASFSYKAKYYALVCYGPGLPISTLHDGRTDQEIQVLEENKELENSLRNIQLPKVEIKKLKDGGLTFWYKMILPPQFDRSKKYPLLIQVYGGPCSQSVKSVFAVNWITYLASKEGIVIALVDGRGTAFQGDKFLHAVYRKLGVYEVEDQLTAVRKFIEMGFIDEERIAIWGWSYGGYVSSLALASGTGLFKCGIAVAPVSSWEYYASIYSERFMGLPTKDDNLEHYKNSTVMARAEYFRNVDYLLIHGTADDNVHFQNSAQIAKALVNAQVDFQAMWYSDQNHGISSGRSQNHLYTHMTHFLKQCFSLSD
Description: (§1) Specifically, the cell line was prepared by suspending in a FACS buffer solution at 1×10⁵ cells/100 μl, and treated with 1 μg of each T1.12m, T1.01m, T1.02m and T1.03m. The cells were washed twice with a FACS buffer solution. The cells were stained with an anti-mouse IgG2a antibody (Biolegend). The negative control was stained only with an anti-mouse IgG2a antibody (Biolegend). The expression rate of the stained cells was measured using BD LSR and analyzed using a FlowJo software.

B16F10 = biological target: T2, B16F10; test: flow cytometry on parental B16F10 cells, detection with anti-mouse IgG2a antibody
T2 construct: not a protein target; also called parental B16F10 cells, without the transduced mouse FAP gene
Description: as §1

recombinant mouse FAP [2] = biological target: T3, recombinant mouse FAP (mouse, UniProt P97321 26-761); test: SPR, fusion protein captured by anti-mouse IgG (Fc) on a CM5 chip, mouse FAP as analyte 1.5625-100 nM, 1:1 binding model
T3 construct: Soluble analyte in SPR
T3 sequence (looked up): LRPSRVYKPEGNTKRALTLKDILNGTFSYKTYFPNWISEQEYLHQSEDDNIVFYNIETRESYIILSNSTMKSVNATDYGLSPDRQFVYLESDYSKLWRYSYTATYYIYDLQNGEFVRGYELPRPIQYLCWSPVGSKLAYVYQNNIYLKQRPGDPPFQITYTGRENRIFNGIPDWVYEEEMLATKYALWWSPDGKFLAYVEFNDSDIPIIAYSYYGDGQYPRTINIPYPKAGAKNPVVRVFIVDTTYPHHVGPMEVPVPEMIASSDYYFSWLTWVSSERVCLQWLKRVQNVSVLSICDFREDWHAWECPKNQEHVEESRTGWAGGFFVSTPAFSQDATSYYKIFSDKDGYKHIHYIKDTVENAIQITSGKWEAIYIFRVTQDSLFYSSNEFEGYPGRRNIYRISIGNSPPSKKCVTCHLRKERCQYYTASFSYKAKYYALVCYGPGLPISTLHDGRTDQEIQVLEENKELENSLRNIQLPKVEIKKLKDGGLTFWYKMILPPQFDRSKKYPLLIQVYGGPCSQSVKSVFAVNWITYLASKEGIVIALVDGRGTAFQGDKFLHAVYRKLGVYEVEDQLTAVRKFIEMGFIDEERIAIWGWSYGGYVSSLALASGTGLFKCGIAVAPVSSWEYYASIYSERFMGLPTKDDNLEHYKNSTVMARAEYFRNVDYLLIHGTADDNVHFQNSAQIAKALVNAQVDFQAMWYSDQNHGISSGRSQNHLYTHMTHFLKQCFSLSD

[3] = biological target: T1, mouse FAP (fibroblast activation …); test: flow cytometry on B16F10-mFAP cells, detection with anti-mouse IgG2a antibody
Description: as §1

recombinant mouse FAP [4] = biological target: T3, recombinant mouse FAP; test: SPR, fusion protein captured by anti-mouse IgG (Fc) on a CM5 chip, mouse FAP as analyte 1.5625-200 nM, 1:1 binding model
Description: The surface of the CM5 chip was activated with a 1:1 mixture of […] (N-hydroxysuccinimide) and […] (1-Ethyl-3-(3-dimethylaminopropyl) carbodiimide), and 25 μg/ml of anti-mouse IgG (Fc) antibody was immobilized for 400 seconds at a rate of 10 μl/min. The remaining active ester groups were blocked with 1 M ethanolamine. T1.01m, T1.02m and T1.03m were diluted to 2 μg/ml and reacted on the CM5 chip immobilized with the anti-mouse IgG (Fc) antibody. The recombinant mouse FAP was diluted to 200 nM in 1×HBS-EP+buffer solution and diluted by serial dilution. The diluted recombinant mouse FAP was reacted at a rate of 30 μl/min. The association and dissociation times were 180 seconds and 400 seconds, respectively. After the dissociation, stabilization was performed for 60 seconds, and then a regeneration was performed for 30 seconds with a 10 mM glycine pH 1.5 solution at a rate of 30 μl/min.

percent of cells bound [1]: ≥ 99%
percent of cells in the positive gate (mFAP-PE) (B16F10): 1.37%
Kd (recombinant mouse FAP [2]): 1.53 nM
koff (recombinant mouse FAP [2]): 0.00014 s⁻¹
kon (recombinant mouse FAP [2]): 91500 M⁻¹ s⁻¹
percent of cells in the positive gate (mFAP-PE) [3]: 92.1%
B1: T1.02m (anti-mu FAP/mu IL-12 mut1, mu IgG2a DANG) (bispecific antibody)
heavy: QVQLQQSGAELARPGASVNLSCKASGYTFTNNGINWLKQRTGQGLEWIGEIYPRSTNTLYNEKFKGKATLTADRSSNTAYMELRSLTSEDSAVYFCARTLTAPFAFWGQGTLVTVSAAKTTAPSVYPLAPVCGDTTGSSVTLGCLVKGYFPEPVTLTWNSGSLSSGVHTFPAVLQSDLYTLSSSVTVTSSTWPSQSITCNVAHPASSTKVDKKIEPRGPTIKPCPPCKCPAPNLLGGPSVFIFPPKIKDVLMISLSPIVTCVVVAVSEDDPDVQISWFVNNVEVHTAQTQTHREDYGSTLRVVSALPIQHQDWMSGKEFKCKVNNKDLPAPIERTISKPKGSVRAPQVYVLPPPEEEMTKKQVTLWCMVTDFMPEDIYVEWTNNGKTELNYKNTEPVLDSDGSYFMYSKLRVEKKNWVERNSYSCSVVHEGLHNHHTTKSFSRTPGK
light: QIVLTQSPAIMSASPGEKVTMTCSASSGVNFMHWYQQKSGTSPKRWIFDTSKLASGVPARFSGSGSGTSYSLTISSMEAEDAATYYCQQWSFNPPTFGGGTKLEIKRADAAPTVSIFPPSSEQLTSGGASVVCFLNNFYPKDINVKWKIDGSERQNGVLNSWTDQDSKDSTYSMSSTLTLTKDEYERHNSYTCEATHKTSTSPIVKSFNRNEC
chain: MWELEKDVYVVEVDWTPDAPGETVNLTCDTPEEDDITWTSDQRHGVIGSGKTLTITVKEFLDAGQYTCHKGGETLSHSHLLLHKKENGIWSTEILKNFKNKTFLKCEAPNYSGRFTCSWLVQRNMDLKFNIKSSSSSPDSRAVTCGMASLSAEKVTLDQRDYEKYSVSCQEDVTCPTAEETLPIELALEARQQNKYENYSTSFFIRDIIKPDPPKNLQMKPLKNSQVEVSWEYPDSWSTPHSYFSLKFFVRIQRAKEKMAETEEGCNQKGAFLVEKTSTEVQCKGGNVCVQAQDRYYNSSCSKWACVPCRVRSGGGGSGGGGSGGGGSRVIPVSGPARCLSQSRNLLKTTDDMVKTAREKLKHYSCTAEDIDHEDITRDQTSTLKTCLPLELHKNESCLATRETSSTTRGSCLPPQKTSLMMTLCLGSIYEDLKMYQTEFQAINAALQNHNHQQIILDKGMLVAIDELMQSLNHNGETLRQKPPVGEADPYRVKMKLCILLHAFSTRVVTINRVMGYLSSAGGGGSGGGGSEPRGPTIKPCPPCKCPAPNLLGGPSVFIFPPKIKDVLMISLSPIVTCVVVAVSEDDPDVQISWFVNNVEVHTAQTQTHREDYGSTLRVVSALPIQHQDWMSGKEFKCKVNNKDLPAPIERTISKPKGSVRAPQVYVLPPPEEEMTKKQVTLSCAVTDFMPEDIYVEWTNNGKTELNYKNTEPVLDSDGSYFMVSKLRVEKKNWVERNSYSCSVVHEGLHNHHTTKSFSRTPGK
notes: Mouse surrogate, knob-in-hole heterodimer

percent of cells bound [1]: ≥ 99%
percent of cells in the positive gate (mFAP-PE) (B16F10): 1.97%
percent of cells in the positive gate (mFAP-PE) [3]: 92.6%
B2: T1.12m (anti-mu FAP/null, mu IgG2a DANG) (antibody)
heavy: B1 heavy
light: B1 light
chain: EPRGPTIKPCPPCKCPAPNLLGGPSVFIFPPKIKDVLMISLSPIVTCVVVAVSEDDPDVQISWFVNNVEVHTAQTQTHREDYGSTLRVVSALPIQHQDWMSGKEFKCKVNNKDLPAPIERTISKPKGSVRAPQVYVLPPPEEEMTKKQVTLSCAVTDFMPEDIYVEWTNNGKTELNYKNTEPVLDSDGSYFMVSKLRVEKKNWVERNSYSCSVVHEGLHNHHTTKSFSRTPGK
notes: One-armed anti-mouse FAP antibody without IL-12; control

percent of cells bound [1]: ≥ 99%
percent of cells in the positive gate (mFAP-PE) (B16F10): 0.89%
percent of cells in the positive gate (mFAP-PE) [3]: 91.6%
Kd (recombinant mouse FAP [4]): 1.25 nM
koff (recombinant mouse FAP [4]): 7.66e-05 s⁻¹
kon (recombinant mouse FAP [4]): 61200 M⁻¹ s⁻¹
B3: T1.03m (anti-mu FAP/mu IL-12 mut2, mu IgG2a DANG) (bispecific antibody)
heavy: B1 heavy
light: B1 light
chain: B1 chain with R254A, K256A
notes: as for B1

percent of cells bound [1]: ≥ 99%
percent of cells in the positive gate (mFAP-PE) (B16F10): 2.41%
Kd (recombinant mouse FAP [2]): 1.51 nM
koff (recombinant mouse FAP [2]): 6.75e-05 s⁻¹
kon (recombinant mouse FAP [2]): 44700 M⁻¹ s⁻¹
percent of cells in the positive gate (mFAP-PE) [3]: 93.7%
B4: T1.01m (anti-mu FAP/mu IL-12, mu IgG2a DANG) (bispecific antibody)
heavy: B1 heavy
light: B1 light
chain: B1 chain with A255K, A260K
notes: as for B1
